Laboratory results reported in patent US20070116705A1.

Target: N-terminus of murine PDE8, containing the PAS/PAC domain, fused to the LexA DNA binding domain (PDE8/LexA) (murine)
Assay: yeast two-hybrid screen, number of high-stringency positive cDNA clones

Chain of N-terminus of murine PDE8, containing the PAS/PAC domain, fused to the LexA DNA binding domain (PDE8/LexA) (murine) (P0A7C2 other isoform, or with tags, fused parts or gaps limits assumed): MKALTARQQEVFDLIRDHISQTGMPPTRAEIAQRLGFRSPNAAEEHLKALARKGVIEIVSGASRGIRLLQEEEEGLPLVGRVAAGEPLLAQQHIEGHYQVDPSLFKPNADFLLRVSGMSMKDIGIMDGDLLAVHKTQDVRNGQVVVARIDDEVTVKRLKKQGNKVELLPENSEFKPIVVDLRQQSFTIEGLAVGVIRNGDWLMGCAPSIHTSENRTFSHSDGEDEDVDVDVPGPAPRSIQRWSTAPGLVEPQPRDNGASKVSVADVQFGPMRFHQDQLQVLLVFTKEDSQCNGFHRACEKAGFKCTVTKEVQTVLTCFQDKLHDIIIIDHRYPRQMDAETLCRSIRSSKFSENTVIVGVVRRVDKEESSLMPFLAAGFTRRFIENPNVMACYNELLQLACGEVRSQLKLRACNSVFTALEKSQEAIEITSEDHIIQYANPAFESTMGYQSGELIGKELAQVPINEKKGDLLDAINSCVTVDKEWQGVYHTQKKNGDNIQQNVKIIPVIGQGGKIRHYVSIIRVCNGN

# of clones	Substance
8 clones	KIAA0898 (from UniProt O94972 1-964)
15 clones	LC8/PIN (Novel)
30 clones	LC8/PIN (dynein 8 kDa light chain) (from UniProt P63167 1-89)
